Source: patent publication US20230322950A1 (Hoffmann-La Roche, published 2023)
Like-named read-outs stand apart in the source and are kept apart here.

B1: anti-CD20 (GA101) wild type IgG1 (antibody)
heavy: not shown
light: DIVMTQTPLSLPVTPGEPASISCRSSKSLLHSNGITYLYWYLQKPGQSPQLLIYQMSNLVSGVPDRFSGSGSGTDFTLKISRVEAEDVGVYYCAQNLELPYTFGGGTKVEIKRTVAAPSVFIFPPSDEQLKSGTASVVCLLNNFYPREAKVQWKVDNALQSGNSQESVTEQDSKDSTYSLSSTLTLSKADYEKHKVYACEVTHQGLSSPVTKSFNRGEC
notes: also called GA101 Fc wildtyp
B2: anti-CD20 (GA101) LALA IgG1 (antibody)
heavy: not shown
light: B1 light

Experiments:
[1] = target: VH2VL1-CD8ATD-CD137CSD-CD3zSSD fusion; experiment: cell-based or functional assay
[2] = target: VH1VL1-CD8ATD-CD137CSD-CD3zSSD fusion; experiment: cell-based or functional assay
[3] = target: VL1VH3-CD8ATD-CD137CSD-CD3zSSD fusion; experiment: cell-based or functional assay
[4] = target: VH3VL1-CD8ATD-CD137CSD-CD3zSSD fusion; experiment: cell-based or functional assay
[5] = target: T1, VH2VL1-CD8ATD-CD137CSD-CD3zSSD fusion; experiment: Jurkat NFAT luciferase reporter assay with CD20-positive WSUDLCL2 target cells (5:1); no reporter activation, which the filing uses to exclude unspecific binding
T1 construct: Chimeric antigen receptor expressed on Jurkat NFAT reporter cells; also called VH2VL1 P329G-CAR
Method: (§1) Binding of the CAR to an immobilized adapter molecule (e.g. a tumor antigen bound adapter molecule) leads to CAR crosslinking resulting in T cell activation and in the expression of luciferase. […] The 384 well plate was centrifuged for 1 min at 300g and RT and incubated at 37° C. and 5% CO₂ in a humidity atmosphere. After 7h incubation 20% of the final volume of ONE-Glo™ Luciferase Assay (E6120, Promega) was added, and plates were centrifuged for 1 min at 350×g. Afterwards, the relative luminescence units (RLU) per s/well were measured immediately using a Tecan microplate reader. Concentration-response curves were fitted and EC₅₀ values were calculated using GraphPadPrism version 7. As p value the New England Journal of Medicine style was used as listed in GraphPadPrism 7. Meaning*=P≤0,033; **=P≤0,002; ***=P≤0.001.

[6] = target: T2, VH1VL1-CD8ATD-CD137CSD-CD3zSSD fusion; experiment: as above
T2 construct: Chimeric antigen receptor expressed on Jurkat NFAT reporter cells; also called VH1VL1 P329G-CAR
Method: as §1

[7] = target: T3, VL1VH3-CD8ATD-CD137CSD-CD3zSSD fusion; experiment: as above
T3 construct: Chimeric antigen receptor with the scFv in VL-VH order, expressed on Jurkat NFAT reporter cells; also called VL1VH3 P329G-CAR
Method: as §1

[8] = target: T4, VH3VL1-CD8ATD-CD137CSD-CD3zSSD fusion; experiment: as above
T4 construct: also called VH3VL1 P329G-CAR
Method: as §1

[9] = target: T1, VH2VL1-CD8ATD-CD137CSD-CD3zSSD fusion; experiment: as above; remark: listed apart in the source
Method: as §1

[10] = target: T2, VH1VL1-CD8ATD-CD137CSD-CD3zSSD fusion; experiment: as above; remark: listed apart in the source
Method: as §1

[11] = target: T3, VL1VH3-CD8ATD-CD137CSD-CD3zSSD fusion; experiment: as above; remark: listed apart in the source
Method: as §1

[12] = target: T4, VH3VL1-CD8ATD-CD137CSD-CD3zSSD fusion; experiment: as above; remark: listed apart in the source
Method: as §1

[13] = target: T1, VH2VL1-CD8ATD-CD137CSD-CD3zSSD fusion; experiment: cell-based or functional assay; remark: listed apart in the source
[14] = target: T2, VH1VL1-CD8ATD-CD137CSD-CD3zSSD fusion; experiment: cell-based or functional assay; remark: listed apart in the source
[15] = target: T3, VL1VH3-CD8ATD-CD137CSD-CD3zSSD fusion; experiment: cell-based or functional assay; remark: listed apart in the source
[16] = target: T4, VH3VL1-CD8ATD-CD137CSD-CD3zSSD fusion; experiment: cell-based or functional assay; remark: listed apart in the source

T3 sequence (chain, as listed by the source): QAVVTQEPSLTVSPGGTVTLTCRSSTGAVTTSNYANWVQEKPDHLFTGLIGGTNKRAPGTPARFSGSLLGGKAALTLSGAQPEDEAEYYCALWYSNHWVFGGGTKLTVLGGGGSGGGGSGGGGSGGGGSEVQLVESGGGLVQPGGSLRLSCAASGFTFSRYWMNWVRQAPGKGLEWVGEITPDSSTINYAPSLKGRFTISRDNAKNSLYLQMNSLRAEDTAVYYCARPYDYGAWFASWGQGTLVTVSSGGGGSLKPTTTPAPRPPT
T4 sequence (chain, as listed by the source): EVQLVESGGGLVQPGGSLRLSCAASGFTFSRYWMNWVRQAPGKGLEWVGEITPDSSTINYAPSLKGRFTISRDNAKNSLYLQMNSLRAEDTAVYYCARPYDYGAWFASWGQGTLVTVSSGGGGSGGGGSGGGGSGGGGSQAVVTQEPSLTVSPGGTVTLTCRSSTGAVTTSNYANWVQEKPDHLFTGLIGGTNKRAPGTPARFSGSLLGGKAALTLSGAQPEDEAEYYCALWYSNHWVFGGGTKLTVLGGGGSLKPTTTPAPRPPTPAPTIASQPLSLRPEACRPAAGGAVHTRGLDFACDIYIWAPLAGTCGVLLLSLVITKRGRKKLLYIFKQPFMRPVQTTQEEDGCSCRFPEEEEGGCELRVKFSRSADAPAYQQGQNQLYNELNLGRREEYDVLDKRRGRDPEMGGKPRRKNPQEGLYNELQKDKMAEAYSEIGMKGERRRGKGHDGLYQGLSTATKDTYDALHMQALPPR
T1 sequence (chain, as listed by the source): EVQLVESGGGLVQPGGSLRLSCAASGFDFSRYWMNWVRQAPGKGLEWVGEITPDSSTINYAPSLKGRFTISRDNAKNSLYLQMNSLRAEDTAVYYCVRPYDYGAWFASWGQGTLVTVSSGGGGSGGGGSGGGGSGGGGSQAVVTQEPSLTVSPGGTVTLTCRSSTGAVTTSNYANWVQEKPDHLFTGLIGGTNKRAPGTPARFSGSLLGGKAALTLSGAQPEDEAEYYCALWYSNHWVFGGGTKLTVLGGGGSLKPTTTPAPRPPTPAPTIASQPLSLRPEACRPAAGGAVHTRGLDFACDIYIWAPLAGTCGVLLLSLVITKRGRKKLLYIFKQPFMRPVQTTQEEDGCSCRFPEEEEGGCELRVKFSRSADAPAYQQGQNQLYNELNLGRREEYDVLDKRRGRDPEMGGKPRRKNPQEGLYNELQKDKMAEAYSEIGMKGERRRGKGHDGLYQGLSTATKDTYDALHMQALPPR
T2 sequence (chain, as listed by the source): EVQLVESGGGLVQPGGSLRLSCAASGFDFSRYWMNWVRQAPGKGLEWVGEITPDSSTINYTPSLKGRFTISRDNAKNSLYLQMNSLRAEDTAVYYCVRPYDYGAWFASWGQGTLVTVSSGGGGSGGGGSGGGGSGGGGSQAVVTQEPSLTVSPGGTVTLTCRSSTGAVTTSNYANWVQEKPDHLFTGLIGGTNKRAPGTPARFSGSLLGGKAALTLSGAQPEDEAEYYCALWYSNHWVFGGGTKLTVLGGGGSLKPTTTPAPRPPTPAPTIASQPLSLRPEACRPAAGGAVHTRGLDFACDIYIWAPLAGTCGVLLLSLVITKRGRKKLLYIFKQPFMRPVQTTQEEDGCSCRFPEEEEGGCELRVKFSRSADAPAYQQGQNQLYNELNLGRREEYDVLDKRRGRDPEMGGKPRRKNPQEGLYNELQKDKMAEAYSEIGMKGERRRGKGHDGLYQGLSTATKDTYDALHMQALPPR

| Binder | EC50 printed in the drawn table (row 'VH2 x VL1') for the Jurkat NFAT reporter assay with WSUDLCL2 cells; it is a fit of a flat curve at background and no activation is seen [1] [pM] | EC50 printed in the drawn table (row 'VH1 x VL1') for the Jurkat NFAT reporter assay with WSUDLCL2 cells; it is a fit of a flat curve at background and no activation is seen [2] [pM] | EC50 printed in the drawn table (row 'VL1 x VH 3') for the Jurkat NFAT reporter assay with WSUDLCL2 cells; it is a fit of a flat curve at background and no activation is seen [3] [pM] | EC50 printed in the drawn table (row 'VH3 x VL1') for the Jurkat NFAT reporter assay with WSUDLCL2 cells; it is a fit of a flat curve at background and no activation is seen [4] [pM] | binding result [5] | binding result [6] | binding result [7] | binding result [8] | binding result [9] | binding result [10] | binding result [11] | binding result [12] | EC50 printed in the drawn table (row 'VH2 x VL1') for the Jurkat NFAT reporter assay with WSUDLCL2 cells; it is a fit of a flat curve at background and no activation is seen [13] [pM] | EC50 printed in the drawn table (row 'VH1 x VL1') for the Jurkat NFAT reporter assay with WSUDLCL2 cells; it is a fit of a flat curve at background and no activation is seen [14] [pM] | EC50 printed in the drawn table (row 'VL1 x VH 3') for the Jurkat NFAT reporter assay with WSUDLCL2 cells; it is a fit of a flat curve at background and no activation is seen [15] [pM] | EC50 printed in the drawn table (row 'VH3 x VL1') for the Jurkat NFAT reporter assay with WSUDLCL2 cells; it is a fit of a flat curve at background and no activation is seen [16] [mM] |
| --- | --- | --- | --- | --- | --- | --- | --- | --- | --- | --- | --- | --- | --- | --- | --- | --- |
| B1 | 0.000119 | ~2.19 | ~78.3 | ~85 | no binding (tested: 67 nM) | no binding (tested: 67 nM) | no binding (tested: 67 nM) | no binding (tested: 67 nM) |  |  |  |  |  |  |  |  |
| B2 |  |  |  |  |  |  |  |  | no binding (tested: 67 nM) | no binding (tested: 67 nM) | no binding (tested: 67 nM) | no binding (tested: 67 nM) | ~0 | ~0.0485 | ~0.000234 | ~1.61e+07 |
